According to patent US12528870B2, “Anti-c-Met antibody-drug conjugate and applications thereof” (REMEGEN CO., LTD., priority 2020, dated 2026):
Read-outs that look alike come from different tables or passages of the source.

Experiments:
c-Met-positive NSCLC = settings: cited from earlier work
[1] = tested on: advanced solid tumors / NSCLC; settings: cited from earlier work
c-Met protein = c-Met protein (Homo sapiens, UniProt P08581); test: ELISA binding ability to c-Met antigen; settings: c-Met protein coated at 2 μg/ml
Procedure: The c-Met protein was prepared with a diluent to a final concentration of 2 μg/ml, and added to a microplate at 100 μl per well, overnight at 4° C. The solution in the well was discarded, and the plate was washed three times with PBST. The plate was added with a blocking solution at 300 μl/well and incubated at 37° C. for 2 h. The solution in the well was discarded, and the plate was washed three times with PBST. AAJ8D6 antibody and ABT-700 (i.e., telisotuzumab, its sequence information can be found at https://extranet.who.int/soinn/mod/page/view.php?id=137&inn n=10366, the same below) were diluted to 9 concentrations, added to the 96-well plate and incubated for 2 h. The solution in the well was discarded, and the plate was washed three times with PBST. HRP detection antibody was prepared by adding diluent at a dilution of 1:5000, added at 100 μl per well, and incubated at 37° C. for 1 h. The solution in the well was discarded, and the plate was washed three times with PB ST. The plate was added with TMB color developing solution, incubated at room temperature for 2 min, and then added with Elisa stop solution.

[2] = combined administration group (with erlotinib)
[3] = single administration cohort, c-Met-positive NSCLC

Chain of c-Met protein (P08581 25-1390): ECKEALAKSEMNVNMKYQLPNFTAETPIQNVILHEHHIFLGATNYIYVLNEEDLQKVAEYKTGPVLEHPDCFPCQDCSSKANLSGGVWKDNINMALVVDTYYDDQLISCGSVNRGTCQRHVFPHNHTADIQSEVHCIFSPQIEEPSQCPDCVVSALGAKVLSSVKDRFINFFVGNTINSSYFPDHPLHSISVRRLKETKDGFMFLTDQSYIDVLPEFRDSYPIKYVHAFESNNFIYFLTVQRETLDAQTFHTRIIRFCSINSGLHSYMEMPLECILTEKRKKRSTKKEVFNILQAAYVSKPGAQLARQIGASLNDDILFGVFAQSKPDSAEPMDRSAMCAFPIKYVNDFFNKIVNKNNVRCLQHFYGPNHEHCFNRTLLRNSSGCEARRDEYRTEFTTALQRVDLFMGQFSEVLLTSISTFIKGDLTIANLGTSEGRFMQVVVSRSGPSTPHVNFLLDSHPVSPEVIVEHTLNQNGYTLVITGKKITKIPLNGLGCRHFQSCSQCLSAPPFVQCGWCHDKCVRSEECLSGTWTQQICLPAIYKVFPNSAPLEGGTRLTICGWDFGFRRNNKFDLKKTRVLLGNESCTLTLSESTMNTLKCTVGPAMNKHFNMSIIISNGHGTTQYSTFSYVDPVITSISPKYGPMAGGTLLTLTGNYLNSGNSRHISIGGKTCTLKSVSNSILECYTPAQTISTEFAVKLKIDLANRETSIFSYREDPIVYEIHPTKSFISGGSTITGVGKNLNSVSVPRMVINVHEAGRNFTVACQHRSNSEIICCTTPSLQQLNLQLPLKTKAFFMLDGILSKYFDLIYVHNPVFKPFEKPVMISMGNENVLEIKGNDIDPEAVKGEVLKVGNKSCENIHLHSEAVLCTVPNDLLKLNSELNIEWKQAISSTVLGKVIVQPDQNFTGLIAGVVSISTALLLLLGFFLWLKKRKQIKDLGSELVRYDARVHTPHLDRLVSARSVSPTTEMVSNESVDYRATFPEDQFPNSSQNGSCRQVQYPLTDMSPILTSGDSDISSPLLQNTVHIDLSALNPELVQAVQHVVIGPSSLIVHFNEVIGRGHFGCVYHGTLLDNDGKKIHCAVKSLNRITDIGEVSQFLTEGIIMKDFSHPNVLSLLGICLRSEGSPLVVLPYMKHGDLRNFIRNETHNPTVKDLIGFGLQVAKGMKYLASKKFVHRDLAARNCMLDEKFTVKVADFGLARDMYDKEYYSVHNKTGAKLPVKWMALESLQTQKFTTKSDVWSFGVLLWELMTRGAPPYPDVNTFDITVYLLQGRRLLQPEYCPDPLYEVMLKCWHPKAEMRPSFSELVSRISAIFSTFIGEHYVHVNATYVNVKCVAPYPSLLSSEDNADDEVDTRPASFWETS

Substance | dose at which well tolerated (c-Met-positive NSCLC; NSCLC patients) [mg/kg] | patients with partial remission (c-Met-positive NSCLC; combined administration group (with erlotinib), 1 remains to be confirmed) | patients under control (c-Met-positive NSCLC; combined administration group (with erlotinib), after 12 weeks of treatment) [%] | adverse reaction: nausea, patients (c-Met-positive NSCLC; [2]) [%] | adverse reaction: neuralgia, patients (c-Met-positive NSCLC; [2]) [%] | adverse reaction: fatigue, patients (c-Met-positive NSCLC; [3]) [%] | adverse reaction: nausea (first listed), patients (c-Met-positive NSCLC; [3]) [%] | adverse reaction: nausea (listed a second time), patients (c-Met-positive NSCLC; [3]) [%] | treatment-related deaths (c-Met-positive NSCLC; single administration group and combined administration group) | patients under control (c-Met-positive NSCLC; single administration group, after 12 weeks of administration) [%] | patients who experienced partial remission (c-Met-positive NSCLC; single administration group) | patients who experienced partial remission ([1]; NSCLC patients with H-score ≥150) | tolerated dose ([1]; every three weeks) [mg/kg] | most frequently occurring toxicity: decreased appetite ([1]; in vivo) [%] | most frequently occurring toxicity: diarrhea ([1]; in vivo) [%] | most frequently occurring toxicity: vomiting ([1]; in vivo) [%] | EC50 (c-Met protein) [ng/mL]
ABBV-399 | 2.7 | 4/13 | 76.9 | 23.1 | 46.2 | 43.8 | 37.5 | 18.8 | no treatment-related deaths | 56.3 | 3/16 | about 19% | 2.7 | 13 | 10 | 13 | –
ABT-700: competitor anti-c-Met antibody, i.e. telisotuzumab | – | – | – | – | – | – | – | – | – | – | – | – | – | – | – | – | 1.33
